Measured values from patent US20250312499A1, “KISSPEPTIN RECEPTOR (KISS1R) TARGETED THERAPEUTICS AND USES THEREOF” (priority 2024, published 2025).
Numbered stars: 1 amine (or outer) side, 2 acyl side, 3 side chain; on linkers, the order of the positions; unused ones are H or OH. Square brackets hold non-standard residues; d marks the D form. Primed or numbered codes have the meaning given here. Side chains are listed from the residue outwards. Ends that are not written are not given here. * marks the point of attachment. X2 = 4‑amino‑1‑((3-fluoro-4-methylbenzyl)glycyl)piperidine‑4‑carboxylic acid, Cc1ccc(CN(CC(=O)N2CCC(N[*:1])(C(=O)[*:2])CC2)[*:3])cc1F; DOTA = O=C(O)CN1CCN(CC(=O)O)CCN(CC(=O)*)CCN(CC(=O)O)CC1; Piperidine‑2‑carboxylic_acid(MeGly) = not defined here; Ala(9-anthryl) = N[C@@H](Cc1c2ccccc2cc2ccccc12)C(=O)O; Bpa = N[C@@H](Cc1ccc(C(=O)c2ccccc2)cc1)C(=O)O; Api(1-amidino) = N=C(N)N1CCC(N)(C(=O)O)CC1; Bip = N[C@@H](Cc1ccc(-c2ccccc2)cc1)C(=O)O; γGlu = O=C(O)[C@H](CCC(=O)[*:2])N[*:1]; d2Nal = N[C@H](Cc1ccc2ccccc2c1)C(=O)O; εLys = N[C@@H](CCCCN[*:1])C(=O)[*:2]; Adipoyl = O=C(CCCCC(=O)[*:2])[*:1]; Palmitoyl = CCCCCCCCCCCCCCCC(=O)*; 4Pal = N[C@@H](Cc1ccncc1)C(=O)O; d4Pal = N[C@H](Cc1ccncc1)C(=O)O; 4Amb = NCc1ccc(C(=O)O)cc1; PEG4′ = not defined here; dCsA = not defined here; Ahx = NCCCCCC(=O)O; azaGly = NNC(=O)O

B1: Compound 300 (peptide)
peptide: {DOTA-Ahx}-[dY][d2Nal]NTF[azaGly]L[Api(1-amidino)]F-NH2
SMILES: CC(C)C[C@H](NC(=O)NNC(=O)[C@H](Cc1ccccc1)NC(=O)[C@@H](NC(=O)[C@H](CC(N)=O)NC(=O)[C@@H](Cc1ccc2ccccc2c1)NC(=O)[C@@H](Cc1ccc(O)cc1)NC(=O)CCCCCNC(=O)CN1CCN(CC(=O)O)CCN(CC(=O)O)CCN(CC(=O)O)CC1)[C@@H](C)O)C(=O)NC1(C(=O)N[C@@H](Cc2ccccc2)C(N)=O)CCN(C(=N)N)CC1
B2: Compound 301 (peptide)
peptide: {DOTA-Ahx}-[d2Nal]NTF[azaGly]L[Api(1-amidino)]F-NH2
SMILES: CC(C)C[C@H](NC(=O)NNC(=O)[C@H](Cc1ccccc1)NC(=O)[C@@H](NC(=O)[C@H](CC(N)=O)NC(=O)[C@@H](Cc1ccc2ccccc2c1)NC(=O)CCCCCNC(=O)CN1CCN(CC(=O)O)CCN(CC(=O)O)CCN(CC(=O)O)CC1)[C@@H](C)O)C(=O)NC1(C(=O)N[C@@H](Cc2ccccc2)C(N)=O)CCN(C(=N)N)CC1
B3: Compound 198 (peptide)
peptide: {DOTA}-[Ahx][dY][Bip]NTF[azaGly]L[Api(1-amidino)]W-NH2
SMILES: CC(C)C[C@H](NC(=O)NNC(=O)[C@H](Cc1ccccc1)NC(=O)[C@@H](NC(=O)[C@H](CC(N)=O)NC(=O)[C@H](Cc1ccc(-c2ccccc2)cc1)NC(=O)[C@@H](Cc1ccc(O)cc1)NC(=O)CCCCCNC(=O)CN1CCN(CC(=O)O)CCN(CC(=O)O)CCN(CC(=O)O)CC1)[C@@H](C)O)C(=O)NC1(C(=O)N[C@@H](Cc2c[nH]c3ccccc23)C(N)=O)CCN(C(=N)N)CC1
B4: Compound 185 (peptide)
peptide: {DOTA}-[Ahx][dY][d2Nal]NTF[azaGly]L[Api(1-amidino)]Y-NH2
SMILES: CC(C)C[C@H](NC(=O)NNC(=O)[C@H](Cc1ccccc1)NC(=O)[C@@H](NC(=O)[C@H](CC(N)=O)NC(=O)[C@@H](Cc1ccc2ccccc2c1)NC(=O)[C@@H](Cc1ccc(O)cc1)NC(=O)CCCCCNC(=O)CN1CCN(CC(=O)O)CCN(CC(=O)O)CCN(CC(=O)O)CC1)[C@@H](C)O)C(=O)NC1(C(=O)N[C@@H](Cc2ccc(O)cc2)C(N)=O)CCN(C(=N)N)CC1
B5: Compound 183 (peptide)
peptide: {DOTA}-[Ahx][dY][Bpa]NTF[azaGly]L[Api(1-amidino)]W-NH2
SMILES: CC(C)C[C@H](NC(=O)NNC(=O)[C@H](Cc1ccccc1)NC(=O)[C@@H](NC(=O)[C@H](CC(N)=O)NC(=O)[C@H](Cc1ccc(C(=O)c2ccccc2)cc1)NC(=O)[C@@H](Cc1ccc(O)cc1)NC(=O)CCCCCNC(=O)CN1CCN(CC(=O)O)CCN(CC(=O)O)CCN(CC(=O)O)CC1)[C@@H](C)O)C(=O)NC1(C(=O)N[C@@H](Cc2c[nH]c3ccccc23)C(N)=O)CCN(C(=N)N)CC1
B6: Compound 184 (peptide)
peptide: {DOTA}-[Ahx][dY][Ala(9-anthryl)]NTF[azaGly]L[Api(1-amidino)]W-NH2
SMILES: CC(C)C[C@H](NC(=O)NNC(=O)[C@H](Cc1ccccc1)NC(=O)[C@@H](NC(=O)[C@H](CC(N)=O)NC(=O)[C@H](Cc1c2ccccc2cc2ccccc12)NC(=O)[C@@H](Cc1ccc(O)cc1)NC(=O)CCCCCNC(=O)CN1CCN(CC(=O)O)CCN(CC(=O)O)CCN(CC(=O)O)CC1)[C@@H](C)O)C(=O)NC1(C(=O)N[C@@H](Cc2c[nH]c3ccccc23)C(N)=O)CCN(C(=N)N)CC1
B7: Compound 107 (peptide)
peptide: {DOTA-Ahx}-[dY][dH][dW]NTF[azaGly]L[X2][4Pal]-NH2
SMILES: Cc1ccc(CNCC(=O)N2CCC(NC(=O)[C@H](CC(C)C)NC(=O)NNC(=O)[C@H](Cc3ccccc3)NC(=O)[C@@H](NC(=O)[C@H](CC(N)=O)NC(=O)[C@@H](Cc3c[nH]c4ccccc34)NC(=O)[C@@H](Cc3c[nH]cn3)NC(=O)[C@@H](Cc3ccc(O)cc3)NC(=O)CCCCCNC(=O)CN3CCN(CC(=O)O)CCN(CC(=O)O)CCN(CC(=O)O)CC3)[C@@H](C)O)(C(=O)N[C@@H](Cc3ccncc3)C(N)=O)CC2)cc1F
B8: Compound 109 (peptide)
peptide: {DOTA-4Amb}-F[azaGly]L[X2]W-NH2
SMILES: Cc1ccc(CNCC(=O)N2CCC(NC(=O)[C@H](CC(C)C)NC(=O)NNC(=O)[C@H](Cc3ccccc3)NC(=O)c3ccc(CNC(=O)CN4CCN(CC(=O)O)CCN(CC(=O)O)CCN(CC(=O)O)CC4)cc3)(C(=O)N[C@@H](Cc3c[nH]c4ccccc34)C(N)=O)CC2)cc1F
B9: Compound 113 (peptide)
peptide: {DOTA-Ahx}-[dY][dW]NAF[azaGly]L[X2]L-NH2
SMILES: Cc1ccc(CNCC(=O)N2CCC(NC(=O)[C@H](CC(C)C)NC(=O)NNC(=O)[C@H](Cc3ccccc3)NC(=O)[C@H](C)NC(=O)[C@H](CC(N)=O)NC(=O)[C@@H](Cc3c[nH]c4ccccc34)NC(=O)[C@@H](Cc3ccc(O)cc3)NC(=O)CCCCCNC(=O)CN3CCN(CC(=O)O)CCN(CC(=O)O)CCN(CC(=O)O)CC3)(C(=O)N[C@@H](CC(C)C)C(N)=O)CC2)cc1F
B10: Compound 117 (peptide)
peptide: [dY][dW]NTF[azaGly]L[X2]W-NH2
modifications: not fully specified (N-terminus); also: N-terminal Lys linked through its epsilon amine to adipoyl, which acylates D-Tyr1
B11: Compound 105 (peptide)
peptide: {DOTA-Ahx}-[dY][dW]NTF[azaGly]L[X2][4Pal]-NH2
SMILES: Cc1ccc(CNCC(=O)N2CCC(NC(=O)[C@H](CC(C)C)NC(=O)NNC(=O)[C@H](Cc3ccccc3)NC(=O)[C@@H](NC(=O)[C@H](CC(N)=O)NC(=O)[C@@H](Cc3c[nH]c4ccccc34)NC(=O)[C@@H](Cc3ccc(O)cc3)NC(=O)CCCCCNC(=O)CN3CCN(CC(=O)O)CCN(CC(=O)O)CCN(CC(=O)O)CC3)[C@@H](C)O)(C(=O)N[C@@H](Cc3ccncc3)C(N)=O)CC2)cc1F
B12: Compound 106 (peptide)
peptide: {DOTA-Ahx}-[dY]N[dW]NTF[azaGly]L[X2][4Pal]-NH2
SMILES: Cc1ccc(CNCC(=O)N2CCC(NC(=O)[C@H](CC(C)C)NC(=O)NNC(=O)[C@H](Cc3ccccc3)NC(=O)[C@@H](NC(=O)[C@H](CC(N)=O)NC(=O)[C@@H](Cc3c[nH]c4ccccc34)NC(=O)[C@H](CC(N)=O)NC(=O)[C@@H](Cc3ccc(O)cc3)NC(=O)CCCCCNC(=O)CN3CCN(CC(=O)O)CCN(CC(=O)O)CCN(CC(=O)O)CC3)[C@@H](C)O)(C(=O)N[C@@H](Cc3ccncc3)C(N)=O)CC2)cc1F
B13: Compound 108 (peptide)
peptide: {DOTA-Ahx}-[dY][azaGly]NTF[azaGly]L[X2]W-NH2
SMILES: Cc1ccc(CNCC(=O)N2CCC(NC(=O)[C@H](CC(C)C)NC(=O)NNC(=O)[C@H](Cc3ccccc3)NC(=O)[C@@H](NC(=O)[C@H](CC(N)=O)NC(=O)NNC(=O)[C@@H](Cc3ccc(O)cc3)NC(=O)CCCCCNC(=O)CN3CCN(CC(=O)O)CCN(CC(=O)O)CCN(CC(=O)O)CC3)[C@@H](C)O)(C(=O)N[C@@H](Cc3c[nH]c4ccccc34)C(N)=O)CC2)cc1F

The binders below were run against human kisspeptin receptor (KISS1R) (human) (UniProt Q969F8) (assay: radioligand competition, hKISS1R membranes; legend: A is <10 nM).
Chain of human kisspeptin receptor (KISS1R) (human) (Q969F8 whole entry): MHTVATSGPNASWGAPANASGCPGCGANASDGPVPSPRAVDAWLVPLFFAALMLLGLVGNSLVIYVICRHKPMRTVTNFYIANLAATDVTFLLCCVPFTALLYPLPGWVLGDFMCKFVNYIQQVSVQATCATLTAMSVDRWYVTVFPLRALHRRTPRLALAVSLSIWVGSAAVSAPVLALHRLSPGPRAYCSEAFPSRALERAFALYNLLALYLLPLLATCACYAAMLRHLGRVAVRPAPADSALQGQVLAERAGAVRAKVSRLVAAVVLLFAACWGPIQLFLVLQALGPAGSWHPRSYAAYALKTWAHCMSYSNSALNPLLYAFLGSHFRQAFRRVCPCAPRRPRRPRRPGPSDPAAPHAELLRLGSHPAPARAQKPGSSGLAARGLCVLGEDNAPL

Ki	Binder
< 10 nM	{DOTA-Ahx}-[dK](4‑(p-tolyl)butanoyl)[dY][d2Nal]NTF[azaGly]L[Api(1-amidino)]F-NH2 [Compound 309]
< 10 nM	{DOTA-Ahx}-[dY][d4Pal]NTF[azaGly]L[Apc(OMe)][4Pal]-NH2 [Compound 299]
< 10 nM	B1
< 10 nM	B2
< 10 nM	B3
< 10 nM	B4
< 10 nM	B5
< 10 nM	B6
< 10 nM	{DOTA}-[dY][3‑(9-anthryl)alanine]NTF[azaGly]L[Api(1-amidino)][4Pal]-NH2 [Compound 221]
< 10 nM	{DOTA-Ahx}-[dY][3‑(9-anthryl)alanine]NTF[azaGly]L[Api(1-amidino)][4Pal]-NH2 [Compound 222]
< 10 nM	{DOTA-Ahx}-[dY][d2Nal]NTF[azaGly]L[Api(1-amidino)]W-NH2 [Compound 269]
< 10 nM	{DOTA}-[Ahx][dY][d2Nal]NTF[azaGly]L[Piperidine‑2‑carboxylic_acid(MeGly)]W-NH2 (not fully specified; reading uncertain) [Compound 201]

The binders below were run against human kisspeptin receptor (KISS1R) (human), Q969F8 in the same assay as above.
Chain of human kisspeptin receptor (KISS1R) (human), Q969F8 (Q969F8 whole entry): as above

Ki	Binder
< 10 nM	{DOTA-dCsA-Ahx}-[dY][dW]NTF[azaGly]L[X2]W-NH2 (not fully specified; reading uncertain) [Compound 115]
< 10 nM	B7
< 10 nM	B8
< 10 nM	{DOTA-4Amb-Met-Val-εLys-Adipoyl}-F[azaGly]L[X2]W-NH2 [Compound 132]
< 10 nM	B9
< 10 nM	B10
< 10 nM	B11
< 10 nM	B12
< 10 nM	{DOTA-Ahx}-[dY][dW]NTF[azaGly]L[4‑amino‑1‑((4-methoxybenzyl)glycyl)piperidine‑4‑carboxylic acid]F-NH2 [Compound 140]
< 10 nM	{DOTA-Met-Val-εLys-Adipoyl}-[dY][dW]NTF[azaGly]L[X2]W-NH2 [Compound 133]
< 10 nM	Palmitoyl-[γGlu]K([PEG4′-DOTA])[dY][dW]NTF[azaGly]L[X2]W-NH2 [Compound 119]
< 10 nM	B13
